For assay [1], the target named is T1, histidine tagged hRGMc (human, UniProt Q6ZVN8 36-400).
T1 construct: also called human RGMc-his; not shown: histidine tag
T1 sequence: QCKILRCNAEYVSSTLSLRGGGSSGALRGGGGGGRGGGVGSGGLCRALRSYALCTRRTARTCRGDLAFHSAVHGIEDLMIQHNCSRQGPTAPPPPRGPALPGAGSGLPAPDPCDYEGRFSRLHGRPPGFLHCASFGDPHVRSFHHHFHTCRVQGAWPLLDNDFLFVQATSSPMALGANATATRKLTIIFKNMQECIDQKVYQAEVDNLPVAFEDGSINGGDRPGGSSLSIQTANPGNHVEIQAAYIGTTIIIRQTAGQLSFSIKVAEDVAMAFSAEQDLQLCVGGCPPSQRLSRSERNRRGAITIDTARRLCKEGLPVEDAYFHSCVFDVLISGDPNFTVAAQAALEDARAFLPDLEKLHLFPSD
The experiment in a line: MSD-SET, full-length antibody against human RGMc-his. The protocol: The titration was then added to a pre-coated plate with a capture antibody (pre-labeled with an NHS-sulfotag) that depletes any free antigen from solution. After a 150 second incubation, the plate was washed 3 times and an SA-sulfotag reagent was added and incubated for 3 min. After additional washes the plate was read on a MesoQuickPlex SQ120.
A similar MSD-SET assay was performed with the full-length antibodies against the human RGMc-his antigen to determine binding affinity (KD)).

Assay [2] concerns the target T2, recombinant, soluble human RGMc fused to an Fc (human, UniProt Q6ZVN8 36-400, limits assumed).
T2 sequence: T1 sequence
Put plainly: cell-based or functional assay.

Assay [3] deals with T2, recombinant, soluble human RGMc fused …. Put plainly: cell-based or functional assay. The source holds these as a separate data set.
Assay [4] deals with T3, histidine tagged hRGMa (human, UniProt Q96B86 46-425, limits assumed).
T3 construct: also called RGMa-his; not shown: histidine tag
T3 sequence: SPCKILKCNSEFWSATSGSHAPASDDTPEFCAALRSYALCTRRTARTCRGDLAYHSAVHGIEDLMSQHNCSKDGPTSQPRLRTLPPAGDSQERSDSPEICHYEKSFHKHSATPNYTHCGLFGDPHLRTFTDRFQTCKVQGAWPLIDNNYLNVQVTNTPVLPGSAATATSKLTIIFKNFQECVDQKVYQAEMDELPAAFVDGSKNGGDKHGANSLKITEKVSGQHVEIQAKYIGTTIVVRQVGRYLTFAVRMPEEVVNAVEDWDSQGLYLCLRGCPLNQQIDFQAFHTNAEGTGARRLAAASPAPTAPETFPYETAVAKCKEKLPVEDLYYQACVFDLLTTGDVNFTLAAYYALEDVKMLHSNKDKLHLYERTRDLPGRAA
The experiment in a line: Octet (BLI), antibody on AHC biosensor, his-tagged hRGMa in solution (concentrations from paragraph 460). The protocol:
(§1) Antibodies that are selective for RGMc were generated using known techniques as describe herein. RGMc specificity over RGMa and RGMb was verified using an in vitro binding assay (i.e., Octet®). […] After loading, a baseline reading was obtained by placing the tips into 1× Kinetics Buffer before calculating the on rate, or association, of the antibodies by presenting them to histidine tagged hRGMc, hRGMa, or hRGMb, at varying concentrations (900 nM, 300 nM, 100 nM, and 33 nM). After reaching binding saturation, a dissociation step was performed to calculate the off rate by moving the tips back into 1× Kinetics Buffer. The rate of binding and dissociation can then be used to calculate the KD, or binding affinity of each antibody to the main target (RGMc) while ensuring no cross binding to RGM family members (RGMa and RGMb).

Assay [5] has as its target T4, histidine tagged hRGMb (human, UniProt Q6NW40 46-413).
T4 construct: not shown: histidine tag
T4 sequence: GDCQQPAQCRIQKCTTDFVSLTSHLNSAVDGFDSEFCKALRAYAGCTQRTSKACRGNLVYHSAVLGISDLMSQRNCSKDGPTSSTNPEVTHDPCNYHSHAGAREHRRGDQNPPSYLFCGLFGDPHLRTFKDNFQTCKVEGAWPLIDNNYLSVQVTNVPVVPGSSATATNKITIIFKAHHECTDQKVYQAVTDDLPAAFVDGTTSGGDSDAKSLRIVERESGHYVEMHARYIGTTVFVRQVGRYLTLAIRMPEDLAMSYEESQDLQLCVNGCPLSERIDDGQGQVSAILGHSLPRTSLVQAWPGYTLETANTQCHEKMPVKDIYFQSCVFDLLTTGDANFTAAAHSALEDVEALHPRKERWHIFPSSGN
Put plainly: Octet (BLI), antibody on AHC biosensor, his-tagged hRGMb in solution (concentrations from paragraph 460). The protocol: as §1
On the technique in general: BLI is a label-free optical method that tracks binding on a fibre tip over time.

Four molecules from patent US20210380669A1 (SCHOLAR ROCK, published 2021) can be followed below.

Where a chain is given by its changes, count along the chain named.

B1: SR-RC-AB9 (antibody, V domains shown)
VH: QVQLVQSGAEVKKPGSSVKVSCKASGGTFSSYSIQWVRQAPGQGLEWMGGIIPIFGVASYAQKFQGRVTITADESTSTAYMELSSLRSEDTAVYYCARGAIAATYGLGMDVWGQGTTVTVSS
VL: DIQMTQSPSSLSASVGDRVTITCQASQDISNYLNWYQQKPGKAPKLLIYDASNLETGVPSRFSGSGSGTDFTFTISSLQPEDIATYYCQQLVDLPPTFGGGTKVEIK
notes: Tested as a full-length antibody
By Kd is commonly meant the constant that tells how readily two partners part at equilibrium. Low readings indicate higher affinity, high ones lower affinity. With B1, the Kd in assay [1] amounted to 24 pM. Moreover, the “EC50 (ug/mL), BMP activity assay” value in assay [2] was 3.45 µg/mL.

B2: SR-RC-AB7 (antibody, V domains shown)
VH: B1 VH with K19R, S33A, A102V
VL: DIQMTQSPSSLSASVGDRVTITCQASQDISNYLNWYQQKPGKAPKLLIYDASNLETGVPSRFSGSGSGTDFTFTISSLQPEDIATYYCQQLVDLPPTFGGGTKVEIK
notes: as for B1
B2 registered a Kd in assay [1] of 21 pM. For the same molecule, in assay [2], the “EC50 (ug/mL), BMP activity assay” value was 3.87 µg/mL.

B3: SR-RC-AB3 (antibody, V domains shown)
VH: B1 VH with S33A, Q35S, V57T, S59N
VL: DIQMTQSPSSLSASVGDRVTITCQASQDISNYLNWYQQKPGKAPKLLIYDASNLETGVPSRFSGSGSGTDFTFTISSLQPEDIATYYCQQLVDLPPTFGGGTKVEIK
notes: Tested as a full-length antibody, captured by anti-human IgG Fc sensors; also called parental antibody
As to B3, in assay [1], the Kd came to 4300 pM. Further, the “EC50 in the BRE reporter assay (BMP6 reporter activity, luciferase RLU)” value in assay [3] stood at 6830 pM. In addition, the binding result in assay [4] and in assay [5] was “no binding (tested: 900 nM)” in each case. Moreover, in assay [2], the “EC50 (ug/mL), BMP activity assay” value came out at 4.83 µg/mL.

B4: SR-RC-AB8 (antibody, human IgG4, V domains shown)
VH: B1 VH with S30R, Q35S, S59N, I101Y, A102E
VL: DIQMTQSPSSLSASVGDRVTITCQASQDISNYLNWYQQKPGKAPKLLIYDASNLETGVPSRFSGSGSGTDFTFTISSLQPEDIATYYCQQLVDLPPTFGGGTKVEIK
B4 showed a Kd in assay [1] of 39 pM. In assay [2], the “EC50 (ug/mL), BMP activity assay” value was found to be 3.63 µg/mL.
